From the DeepSol protein solubility set

Experiment: soluble on expression in E. coli; label from the status in PepcDB or PDB records
For “MNKKIFVIGSGLSGLVASTELLKKGYHVTMLDQEPRQAIGGQAYWSFGGLFLVNSKIQQRLGVKDSYELALNDWLGSAQFDRPDDEDYWAKQWAEAYVRFATFEKENYLKEMGVRLTPILGWAERGGASASGHGNSVPRFHITWGTGPGLVEPFSRFVLEKEQEGQFKFLPRHQVTDIGIEHNQVTHISGIILEPSDVERGEKSSRTVIDTFHYEVDELLITSGGIGANMPLIRKYWPKRLGNPPKTMIQGVPDSTDGHLIQVTEDAGANIVNKDRMWHYTEGIQNHSPIWSNHGIRIIPGPSSMWFDATGKRMAAPDYPGFDTLHTLETIMKTGYDYSWFILTEDIIKKEFVLSGSEQNPDLTDKDIKLLLQERLGSKATSPVEAFMDKGPDFILADDLGMLVRKMNDLAGNDLLNYETIKHEIKARDLQIDNPFTKDPQVAFINNARQFLGNKLVRTAKPHKILSGRNGRLIAVKLNIISRKTLGGIQTNLDGQALNPSMQPIQGLYAAGEASGFGGGGVHGYRALEGTFLGGCIFSGIRAAEGIHHHIQLEHHHHHH”, the “soluble on expression in E. coli” value was “soluble”. For “MNKNLHPIFAKRIQQVLDENGWSMADLSRRVMLSHTSVRKWASGTSVASGERLKRLSAVTGRPEYWFFMEPGDESEGERAEPKPRVLDEKEETLLSLFNQLPEAEKLRVILHTKAVLQEMDLLKNNVFDLINDLKK”, the “soluble on expression in E. coli” value was “not soluble”. For “MNKYEEVLQELIKASGIEGAAIVSLDGLPIASVLPANAEEDKVAAMSAAILSLGERVVEELGKGTMEQITIKGDKGYVVITEIGQDAVLTTLAGQDSKLGLIYMEIKKAQQKLKELI”, the “soluble on expression in E. coli” value was “not soluble”. With “MNLFYNKEAVGDVAFLQINPTEGEYNYVTQGDVVEIQNDGEVVGYNIFNASNKATLTGNGHIKLTETLVQAFQKAIEAAGFTYKLDADFTPKFVVGYVETKDKHPDADKLSVLSVDVATEKLQIVCGAPNVEAGQKVVVAKVGAVMPSGMVIKDAELRGVASSGMICSMKELGLPNAPQEKGIMVLSDDYTVGQSFFEVLEHHHHHH” the “soluble on expression in E. coli” value was “soluble”. In the case of “MNLKEFIIPAIDLMEGKAVRLYKGDFNKVKVYSERPWELAKNFSDLGFKRLHVVDLEGAEGGKPKNLEVIRKIRENFEGEVEVGGGIRSYEVAKALFDEGIDFVVIGTLAYKNKEEFLKILENFPNRVILAIDSKQGKVAIGGWKEETAVSPEEFAKEYENYPIWGYLYTVIERDGSLEGVDVEPYKEIKKHVKKPVIASGGVSSLEDIKKLYGIVEGVVVGKAIYEGRITLEDLQNF”, the “soluble on expression in E. coli” value is reported as “soluble”. For “MNLLETVEQDTMPTHYKQMTQVEMIARVTEIKAQLGENLFIPCHHYQKDEVVPFADAIGDSLQLAQIAAQNKKAKHIVFCGVHFMAETADMLTTSEQIVTLPDMRAGCSMADMADIHQLTNAWPKLQTLFGDTILPVTYINSTAAIKSFVGEHGGTTVTSSNATKIVSWALEQKERIFFLPDQHLGRNTAFELGIPLEHMAIWNPIKNELEYEGNLDDCKVILWKGYCSVHQHFTVKNIENIRKNHPNMRIIVHPECTHEVVSLADDSGSTKKIVTEINNAAPGTEWAVGTEANLVGRIIQENPDKKIVSLNPFMCPCMTMNRIDLPHLLWTLEAIQNGEKRNQIKVDEQTTKFALKALERMLQLS”, the “soluble on expression in E. coli” value was “not soluble”. For “MNLLPYQFVGEVVRGFGRGGKELGCPTANMDGTVVNGLPEGLPVGVYFGTAKLDGKSYKMAMSIGWNPQYQNEKKTVELHLIDYSGSDFYGKTLSAVIIGFIREMKSFESLDELKSAIAMDIKVARRGSVEQGKL”, the “soluble on expression in E. coli” value was “not soluble”. In the case of “MNLMLCCTPLQVLIARKIIELHPNEQFFGVMFGGVWDKKRTLYASKLAEVCSDSMNIDTGKDLKGFDFLKLMRQLKNKITHKGFDKVFLANLNSLWLQTYLSHVSFKELYTFDDGSDNIFPHPNLLREPGTFKYKLIKAFIGDKYSVNKLFKKIKKHYTVYPNYKNIVSNIEPISLWDNQIDCEIDGEVSFFIGQPLLNTKEENISLIKKLKDQIPFDYYFPHPAEDYRVDGVNYVESELIFEDYVFKHLSNKKIIIYTFFSSVAFNLLSHPNVEIRFIRTSIPRWQFCYDSFPDLGLTIYKEI”, the “soluble on expression in E. coli” value is reported as “not soluble”. In the case of “MNLRTQKFHMYFKQWIELYKEGAVRPVTYQKYQMSHKHLVTLAPDLHMDELKRRTYQELINEFAANHEKQTTLDFHHHLKAAILDALDEGILEQDPTRKVVIKGTLEHHHHHH”, the “soluble on expression in E. coli” value is reported as “soluble”. In the case of “MNLTHQDFNLFNREIFTFKQLKEQQTSAEIDALKQTYKQHWEKWKALNLAIAQGLPAELGITKPKIESWTNGWNLRSHFWAAYRSEQRQAENACLALLLNKKQFQVYLMFQHYKSEERTGSVVAYNQLLNRLEAWSQTIDCEGYYIWPQEEHELVDHLPLKDYLADEKQRKILEERIGNRSFQIGKLWFATEKLETIEEKSCQALQELAPLYNALSEK”, the “soluble on expression in E. coli” value is reported as “not soluble”. In the case of “MNLTIIEFESNVLRDNPLNDPYKRRVGIIYPKDYEGRPILIYLSGYLSSSLTQINYNPLGEDMVSKVERLSNEGKMKGSVIVLPDMFTKVGGNQYINSSAVGMYEDFLVKELIPFLKDKFKSDKIGIFGHSSGGYGALILGMKYPNTIKAIADHAGDAYFEYVYLPTFPRAIEQLRRFKTPEEWLENYWKKENKQHREDLNTLNVVGMSAFYSPNNEKIELPFDLETGEILEDVWKKWLEKDPVRMVDKYADNLKMLKFIFIDVGKKDEFNIQYGSRTLHKKLQKYGINHYYEEFNDGHLHTNYRYDISLSLLEKKLTSE”, the “soluble on expression in E. coli” value is reported as “not soluble”. With “MNLTPGGNAPVPAQELRVRITSGGQVDASAFRLYADGKVQGDADMVFYGQPRNDDGTVSLVSEGQYSTFTVALNRLKPDVQKIAFTVTCDGGQTVSGLRNLSIDVEQGATGLVSGSVELSGRQEAALILGEFYRRNNDWKFRFVAQGFNGGLKPLAEHFGVNIADEPAPAAPTPPVVTPPPVETKISLSKVSLTKEKPAISLTKRDNFGEIRINLNWHRGSSKSGFAGMFGSKGIDLDLGAFVELQDGYKSVIQALGNAFGDYRDEPYVQLKGDDRTGDVSDGEWLHINGREWKHIREVLIYAFIYEGVPSWDKTDGVVTIHVPDQPPIETRLTEGENRRTLCAIARLVNENGAIKVERINQYFKGQDEMDRAFGWGFRWSAGSK” the “soluble on expression in E. coli” value was “not soluble”. In the case of “MNNENERFEGFFSRVVEQVRTLVLVPICQENKSENASPVCSVSSRVQEVLGLAQAIRLEVVYYETVNINIPRPATLFGTGKVKALTHYISEYDIELVIVDHFLTPVQQRNLEKLWNCKVIDRTALILEIFGDRARTKEGVLQVELAHLSYQKSRLVRSWTHLERQRGGHGFLGGPGETQIEADRRLLQEKIIRIRRELEKVIKTRALHRAKRKKTSHPIVALVGYTNTGKSTLFNRLSGANVLAKDMLFATLDPTLRKVVLPHGKTILLSDTVGFISHLPTHLIAAFRATLEEVVEADLILHVRDMSDLDHRAHGQDVLEVLADLGIDIDDTEHIIEVWNKIDILDEHALNVLQTSARTRLNPAVMVSALMSDGLDQLLTAIEKRVFGEMQSIECLLRPHEMSLISWFYENSGEIMQEGHNDGSVTIRAMLTSEAKKRLDHIKQTMN”, the “soluble on expression in E. coli” value is reported as “not soluble”. For “MNNENMLSDNSTQTSQINETIDQPIIYILDTNILLHEPFAFLSFKEHDVVVPMTVLEELDSIKDRRKDVSRDARVAIRALEDTLRDASPEQVLAGVKLPQNDDQHPSGSLAIINDYALEKTAHTLSFNENDNRIINAALHIQKKTPNKKIVLVTKDINMRLKAKGAGLAHVEDYRTDQLIDDIQFLTKGYHKFEGDFWQQIQSVDSETEGRNTTHYVSRETVPSTYINEYLLDDSGTFAGKVTGWDDDKLAILDLGRERLLAKNAWGIHPKNIYQGMAMDALLDPTIDLVILTGPAGSGKTLLALASALEQVIERGLYDKIIVTRSTPEIAESIGFLPGTEEEKMAPWLAAITDSLEVLHQQDESMHGSLNYIMDKANIQFKSVNFMRGRSIQNALVLLDECQNLTAAQLKTIITRCGEGTKLVCSGNLAQIDSNYLTAVTSGLTYIVERFKDFPGSATVNLNGVVRSRLASFAEENL”, the “soluble on expression in E. coli” value was “soluble”. With “MNNFTMPDKKYFLFAARRADDQLILVVPKSGERFLMNEELLRRDYNVQLGDFLHCKINRSKELYDISKTKHTANISTVVNGDEAIIENLRADLVSSDELLLFQSQLFDDIRCWQSDQPIGRYYIKMRLFPTSREMSGRMIHYEVVKITGSVKSIELNKQQGNFQQNIDSGYSAASEKTESSAGFSQSPAAGLPSPQNLIYPAGSKKIVSQQGTQVVGPGCPLVKKEETPANKIMGTGFPKSTKREENVFGSELLQQKKNNEKPGSTVGKGFTTSQTIGEKQRAVVTSIDAKRPGTYYLWNLDSKTEGLLKSTTPLELGHQFAGIFVNQENGKCFCKEYIGEIERVLEGKVNDTNKVNLTVKLLDFQPAGVNRRRASGTAKYIGDVLEGNTEDTKLTIECIGKKVNIERRKFGEKDFVWMVTEIRNCSQYDQKIF” the “soluble on expression in E. coli” value was “not soluble”. With “MNNHIEALSYYLGAFVDELTLLNVCDVVISPGSRSTPIALLMEQHEGMNTYLHVDERSAGFFALGIAKAKKRPVALLCTSGTAAANYYPAVCEAFHSRVPLIVLTADRPHELRDVGAPQAMNQINLYGTFVKQFTEMALPEASEAMYHYARLTTQRMIASACLAPQGPVHLNFPVREPLIPDFSLESLWDKGRGEYTGVVQQGNAVMPSEYVDSLVGRLSHMEKGLIICGDDSHSEIAAFATQLAEKTGYPILADPLSNIRSGHHDKTMVIDCYDTFLRNELLKETWKPDVLIRFGGMPVSKALTQFIKKQTKAVHIVVDESGQWRDPALVATEVVQASDIAFCSALIEKMPVMKKNDWFRMWQHINEKTKETLREMETYDTAFEGRVITDIVRVLPEGATLFASNSMPIRDTDSFFFTSDKNIQVMANRGVNGIDGIISTALGASMICDPLVLVIGDLSFYHDLNGLLAAKLHELNITIVVVNNDGGGIFSFLPQYEKKEHFESLFGTPIGLDYEHVVTMYGGSFSRVNGWEQFREEVQKGVTTEGLHVVEICTNRDENLTLHRTLWAKTQDVITTSLQGESK” the “soluble on expression in E. coli” value was “soluble”. In the case of “MNNIAAPDQSFNPAHVLSFDLETTSANPFEARIVTSALVRIDSSGAHPVELLADPGVEIPEAASKVHGISTEYAREHGEPHEAVLKRTVDEIYAAWEEGFTLVVYNAPYDLTVLRQLTGDFVVKGPVYDPYLIDRIMDRFRKGKRTLTDLCSVYGVRMDNAHEATSDALAAARIAWMQAKKRFKDDLAAYSHDELMEYQAVQYYELQKDMKKYLDGLGRDTSTVNFGWPMQNSR”, the “soluble on expression in E. coli” value is reported as “not soluble”. With “MNNMKKYLSLCIMLLCLCSTVMAQQEKVVVKGVVTDEAKEPLIGVNVTVKDMPGLGSITDMNGHYSITMEPYRQLVFTYIGYESKEVMVKEQRTINVVMKESVTRAVDEVVITGTGVQRKLTQTGAITTVDVGELKRNPSSSIVNALAGNVPGIMARQTSGQPGKNISEFWIRGISTFGANSSAYVLVDGFERSMDEINIEDIETFTVLKDASATAIYGSKGANGVVLITTKRGKAGKIKIDAKVETTYNTRTVLQSSKTDLLMPA” the “soluble on expression in E. coli” value was “not soluble”. For “MNNNVITRFAPSPTGFLHIGSARTALFNYLFARHHNGKFLLRIEDTDKERSTKEAVEAIFSGLKWLGLDWNGEVIFQSKRNNLYKEAALKLLQNGKAYYCFTRQEEIERQRQQALENKQHFIFNSEWRDKDPSIYPTDIKPVIRLKTPREGSITIHDTLQGEVVIENSHIDDMVLLRADGTATYMLAVVVDDHDMGITHIIRGDDHLTNTARQLAIYQAFGYAVPSMTHIPLIHGADGAKLSKRHGALGIEAYKDMGYLPESLCNYLLRLGWSHGDDEIISMTQAIDWFNLDSLGKSPSKLDFAKMNSLNAHYLRMLDNDSLTSKTVEILEQNYNTLLRHLPYREEFGGNTERSTAAYIDIREDASTGLTYKLPLAVELPKKFKISEQEIGYIKQAMPSLLVRSETLLELTRLAQIYLVDSPIIYSQDSKEIIENCDKNLIKQIIENLSELEQFDKESVQNKFKEIAAANDLKLNDIMKPVRALITGMTASPSIFEIAEILGKENILKRLKII”, the “soluble on expression in E. coli” value was “soluble”. In the case of “MNNPAMTIKGEQAKKQLIAAALAQFGEYGMNATTREIAAQAGQNIAAITYYFGSKEDLYLACAQWIADFIGEQFRPHAEEAERLFAQPQPDRAAIRELILRACRNMIKLLTQDDTVNLSKFISREQLSPTAAYHLVHEQVISPLHSHLTRLIAAWTGCDANDTRMILHTHALIGEILAFRLGKETILLRTGWTAFDEEKTELINQTVTCHIDLILQGLSQRSL”, the “soluble on expression in E. coli” value is reported as “soluble”.
